Results on two substances are retold here after doi:10.1101/2022.05.06.490861.

In assay [1] the target is Arp2/3 complex (bovine (purified from bovine brain)) (UniProt P61157).
Assay [2] shares this target. This is another data set of the same source.

Where only a bound is given, the exact number is not on record here.

In turn, “GST-N-WASP-VCA (from UniProt O00401 392-505) (domain or fragment)” displayed an increase of the detachment rate of SPIN90-Arp2/3-nucleated filaments, 0-1 µM VCA in assay [1] of under 16 fold.
“GST-WASH-VCA (from UniProt Q8VDD8 319-475) (domain or fragment)” showed an acceleration of debranching of Arp2/3-mediated branches, 0-3 µM VCA in assay [2] of under 83 fold.
